Target: T1, CD6 lymphocyte surface receptor (human (endogenous in PBMC)) (UniProt P30203)
T1 sequence: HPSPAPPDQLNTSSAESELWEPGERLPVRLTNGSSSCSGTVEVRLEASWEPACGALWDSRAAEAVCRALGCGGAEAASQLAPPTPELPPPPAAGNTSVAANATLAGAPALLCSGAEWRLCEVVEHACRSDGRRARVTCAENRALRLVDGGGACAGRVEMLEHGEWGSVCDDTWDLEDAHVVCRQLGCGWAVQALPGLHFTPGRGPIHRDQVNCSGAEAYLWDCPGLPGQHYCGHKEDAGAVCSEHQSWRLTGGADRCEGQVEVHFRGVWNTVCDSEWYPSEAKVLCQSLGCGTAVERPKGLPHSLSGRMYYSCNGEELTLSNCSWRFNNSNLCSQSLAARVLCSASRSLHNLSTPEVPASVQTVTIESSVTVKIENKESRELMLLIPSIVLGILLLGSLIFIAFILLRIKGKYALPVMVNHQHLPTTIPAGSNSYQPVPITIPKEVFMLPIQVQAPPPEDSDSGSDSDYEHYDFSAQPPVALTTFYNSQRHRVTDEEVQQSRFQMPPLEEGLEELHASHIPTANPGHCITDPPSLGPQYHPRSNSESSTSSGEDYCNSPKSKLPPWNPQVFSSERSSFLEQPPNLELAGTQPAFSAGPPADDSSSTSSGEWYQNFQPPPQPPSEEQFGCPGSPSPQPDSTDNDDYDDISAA

tyrosine phosphorylation of CD6 immunoprecipitated from human PBMC plated on plate-bound ALCAM (immunoblot for p-Tyr): > 2.5 fold
B1: Recombinant Human ALCAM/CD166 Fc Chimera (Fc fusion)
chain: WYTVNSAYGDTIIIPCRLDVPQNLMFGKWKYEKPDGSPVFIAFRSSTKKSVQYDDVPEYKDRLNLSENYTLSISNARISDEKRFVCMLVTEDNVFEAPTIVKVFKQPSKPEIVSKALFLETEQLKKLGDCISEDSYPDGNITWYRNGKVLHPLEGAVVIIFKKEMDPVTQLYTMTSTLEYKTTKADIQMPFTCSVTYYGPSGQKTIHSEQAVFDIYYPTEQVTIQVLPPKNAIKEGDNITLKCLGNGNPPPEEFLFYLPGQPEGIRSSNTYTLTDVRRNATGDYKCSLIDKKSMIASTAITVHYLDLSLNPSGEVTRQIGDALPVSCTISASRNATVVWMKDNIRLRSSPSFSSLHYQDAGNYVCETALQEVEGLKKRESLTLIVEGKPQIKMTKKTDPSGLSKTIICHVEGFPKPAIQWTITGSGSVINQTEESPYINGRYYSKIIISPEENVTLTCTAENQLERTVNSLNVSAISIPEHDEADEISDENREKVNDQAK

Source: PMC5495335
